The values that follow come from PMC5382271, “The conserved protein Seb1 drives transcription termination by binding RNA polymerase II and nascent RNA” (Nature Communications, 2017).

Positions count from the first letter of the chain named.

Series [1] deals with Seb1 SUMO-RRM388-540 S492A. In words: FA, SUMO-RRM S492A binding to RNA. The conditions noted are these: SUMO-RRM388-540 S492A vs WT (Fig. 3e). Details: species or system S. pombe. As to the method: (§1) Recombinant WT and mutated RRM388−540 of Seb1 with an N-terminal His6-SUMO tag were expressed from modified pOPINS3C expression vector[69] in pLysS E. coli strain. For FA assays, protein eluted from NiNTA was further purified on a HiLoad 16/60 Superdex 200 prep grade column (GE Healthcare) using an ÄKTA purifier (GE Healthcare) in 50 mM Tris pH 8.0 and 200 mM NaCl, and fractions containing the Seb1-RRM388−540 concentrated to ∼5 mg ml^−1. For crystallization and SAXS, the NiNTA eluted fractions were buffer exchanged into 50 mM Tris pH 7.5, 300 mM NaCl and 500 mM NDSB-201 using a PD-10 column (GE Healthcare) and cleaved with 3C protease (Sigma-Aldrich) at room temperature overnight. […]
(§2) For Seb1-CID1–152, binding to 75 nM of two-repeat CTD peptides containing an N-terminal 5′-fluorescein amidite (FAM)-tag (Peptides&elephants, Potsdam, Germany) was determined in 25 mM HEPES pH 7.3, 200 mM NaCl and 1 mM EDTA. For RRM388–540, binding was determined to 40 nM FAM-AUUAGUAAAA RNA (Eurofins) in 25 mM Tris-HCl pH 8.0, 100 mM NaCl, 2 mM MgCl2, 1 mM DTT, 16.7% (v/v) glycerol, 0.1% IGEPAL, 0.1 mg ml^−1 tRNA and 2.5% (v/v) RNasin (Promega). Excitation of the ligand was performed with linearly polarized light at 485 nm and emission was measured at 520 nm in parallel and perpendicular planes to the emission plane at 25 °C using a FLUOstar-Omega microplate reader (BMG-Labtech). […]

Series [2] concerns Seb1 SUMO-RRM388-540 R472E. The series is described as follows: FA, SUMO-RRM R472E binding to RNA. Also noted: species or system S. pombe. The conditions noted are these: SUMO-RRM388-540 R472E vs WT (Fig. 3e). Here is the method:
as §1, §2

Series [3] concerns Seb1 SUMO-RRM388-540 F445A. In words: FA, SUMO-RRM F445A binding to RNA. Also noted: species or system S. pombe. The conditions noted are these: for effect on RNA binding, F445A: FA, SUMO-RRM388-540 F445A vs WT (Fig. 3e). Here is the method:
Recombinant WT and mutated RRM388−540 of Seb1 with an N-terminal His6-SUMO tag were expressed from modified pOPINS3C expression vector[69] in pLysS E. coli strain. For FA assays, protein eluted from NiNTA was further purified on a HiLoad 16/60 Superdex 200 prep grade column (GE Healthcare) using an ÄKTA purifier (GE Healthcare) in 50 mM Tris pH 8.0 and 200 mM NaCl, and fractions containing the Seb1-RRM388−540 concentrated to ∼5 mg ml^−1. For crystallization and SAXS, the NiNTA eluted fractions were buffer exchanged into 50 mM Tris pH 7.5, 300 mM NaCl and 500 mM NDSB-201 using a PD-10 column (GE Healthcare) and cleaved with 3C protease (Sigma-Aldrich) at room temperature overnight. His6-SUMO tag was removed using NiNTA beads and the cleaved RRM388−540 was further purified on a Superdex 75 10/100 GL column (GE Healthcare) in 20 mM HEPES pH 7.3, 150 mM NaCl and 500 mM NDSB-201. For crystallization trials, the eluted protein was concentrated to ∼8.7 mg ml^−1, for SAXS to ∼5 mg ml^−1.
For Seb1-CID1–152, binding to 75 nM of two-repeat CTD peptides containing an N-terminal 5′-fluorescein amidite (FAM)-tag (Peptides&elephants, Potsdam, Germany) was determined in 25 mM HEPES pH 7.3, 200 mM NaCl and 1 mM EDTA. For RRM388–540, binding was determined to 40 nM FAM-AUUAGUAAAA RNA (Eurofins) in 25 mM Tris-HCl pH 8.0, 100 mM NaCl, 2 mM MgCl2, 1 mM DTT, 16.7% (v/v) glycerol, 0.1% IGEPAL, 0.1 mg ml^−1 tRNA and 2.5% (v/v) RNasin (Promega). Excitation of the ligand was performed with linearly polarized light at 485 nm and emission was measured at 520 nm in parallel and perpendicular planes to the emission plane at 25 °C using a FLUOstar-Omega microplate reader (BMG-Labtech). All measurements were performed in at least duplicates, results were plotted against the protein concentration and Kd values were determined via curve fitting as described in ref. [70].

Series [4] relates to Seb1 SUMO-RRM388-540 F487A. In words: FA, SUMO-RRM F487A binding to RNA. Also noted: species or system S. pombe. The conditions noted are these: SUMO-RRM388-540 F487A vs WT (Fig. 3e). As to the method: as §1, §2
Series [5] deals with T1, SUMO-RRM R504E (Schizosaccharomyces pombe, UniProt Q9UTE3 388-540, R504E).
T1 sequence: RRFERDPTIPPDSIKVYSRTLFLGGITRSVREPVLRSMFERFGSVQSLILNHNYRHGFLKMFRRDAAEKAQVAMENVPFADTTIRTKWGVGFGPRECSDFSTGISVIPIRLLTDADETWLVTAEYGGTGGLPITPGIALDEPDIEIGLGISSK
The series is described as follows: fluorescence anisotropy; 25 mM Tris-HCl pH 8.0, 100 mM NaCl, 2 mM MgCl2, 1 mM DTT, 16.7% glycerol, 0.1% IGEPAL, 0.1 mg/ml tRNA, 2.5% RNasin, 25 C, 40 nM FAM-RNA. Conditions: protein: recombinant; tags: N-terminal His6-SUMO; single strand.

Series [6] concerns the target T2, SUMO-RRM F449A (Schizosaccharomyces pombe, UniProt Q9UTE3 388-540, F449A).
T2 sequence: T1 sequence with F62A, E117R
The series is described as above. Conditions: protein: recombinant; tags: N-terminal His6-SUMO; single strand.

Series [7] has as its target T3, SUMO-RRM R450A (Schizosaccharomyces pombe, UniProt Q9UTE3 388-540, R450A).
T3 sequence: T1 sequence with R63A, E117R
Described as above. Conditions: protein: recombinant; tags: N-terminal His6-SUMO; single strand.

Series [8] addresses T4, SUMO-RRM F487A (Schizosaccharomyces pombe, UniProt Q9UTE3 388-540, F487A).
T4 sequence: T1 sequence with F100A, E117R
The description is as above. The conditions noted are these: protein: recombinant; tags: N-terminal His6-SUMO; single strand.

For series [9], the target named is T5, SUMO-RRM R392E (Schizosaccharomyces pombe, UniProt Q9UTE3 388-540, R392E).
T5 sequence: T1 sequence with R5E, E117R
Described as above. Conditions: protein: recombinant; tags: N-terminal His6-SUMO; single strand.

The target of series [10] is T6, SUMO-RRM K402A (Schizosaccharomyces pombe, UniProt Q9UTE3 388-540, K402A).
T6 sequence: T1 sequence with K15A, E117R
The description is as above. Conditions: protein: recombinant; tags: N-terminal His6-SUMO; single strand.

In series [11] the target is T7, Seb1-RRM388-540 (tag cleaved) (Schizosaccharomyces pombe, UniProt Q9UTE3 388-540).
T7 sequence: T1 sequence with E117R
The description is as above. Conditions: protein: recombinant; tags: His6-SUMO removed with 3C protease; single strand.

Series [12] deals with T8, SUMO-RRM WT (Schizosaccharomyces pombe, UniProt Q9UTE3 388-540).
T8 sequence: T1 sequence with E117R
The series is described as above. The conditions noted are these: protein: recombinant; tags: N-terminal His6-SUMO; single strand.

Series [13] concerns the target T9, SUMO-RRM R428E (Schizosaccharomyces pombe, UniProt Q9UTE3 388-540, R428E).
T9 sequence: T1 sequence with R41E, E117R
The description is as above. Conditions: protein: recombinant; tags: N-terminal His6-SUMO; single strand.

Series [14] addresses T10, SUMO-RRM S492A (Schizosaccharomyces pombe, UniProt Q9UTE3 388-540, S492A).
T10 sequence: T1 sequence with S105A, E117R
In words: fluorescence anisotropy; text: mild effect on binding; 25 mM Tris-HCl pH 8.0, 100 mM NaCl, 2 mM MgCl2, 1 mM DTT, 16.7% glycerol, 0.1% IGEPAL, 0.1 mg/ml tRNA, 2.5% RNasin, 25 C, 40 nM FAM-RNA. The conditions noted are these: protein: recombinant; tags: N-terminal His6-SUMO; single strand.

Series [15] addresses T11, SUMO-RRM R472E (Schizosaccharomyces pombe, UniProt Q9UTE3 388-540, R472E).
T11 sequence: T1 sequence with R85E, E117R
The series is described as follows: fluorescence anisotropy; text: completely abolishes RNA binding; fitted Kd error exceeds value; 25 mM Tris-HCl pH 8.0, 100 mM NaCl, 2 mM MgCl2, 1 mM DTT, 16.7% glycerol, 0.1% IGEPAL, 0.1 mg/ml tRNA, 2.5% RNasin, 25 C, 40 nM FAM-RNA. Conditions: protein: recombinant; tags: N-terminal His6-SUMO; single strand.

With “AUUAGUAAAA (chemistry not fully specified) [RNA: AUUAGUAAAA]”, the “effect on RNA binding, S492A” value in [1] was “only a mild effect on binding”. For the same molecule, the “effect on RNA binding, R472E” value in [2] is given as “completely abolishes RNA binding”. In addition, the results for the “effect on RNA binding, F445A” value in series [3] (listed as FAM-labelled 10 nt-RNA) and in series [3] (listed as RNA) were “completely abolishes RNA binding” and “abolishes the interaction completely”, respectively. The same molecule returned a Kd in [3] (fluorescence anisotropy, SUMO-RRM F445A, 40 nM FAM-RNA, Tris-HCl pH 8.0, 100 mM NaCl, 2 mM MgCl2, 25 °C, three technical replicates) of more than 1000 µM. Further, the “effect on affinity to RNA, F487A” value in [4] was “severely reduces the affinity to RNA”.

B1: FAM-AUUAGUAAAA RNA (ssRNA)
RNA: AUUAGUAAAA
Regarding B1, the Kd in [5] turned out to be 2.37 ± 0.17 µM; in [6], 1.99 ± 0.19 µM; in series [7] it was 1.91 ± 0.71 µM; in [8], 25.6 ± 15.7 µM; in [9] it was 3.33 ± 0.53 µM; in series [10], 2.49 ± 0.33 µM. For the same molecule, the equilibrium dissociation constant (Kd) in series [11] was 1.84 ± 0.63 µM; in [12], 1.72 ± 0.06 µM; in [13] it was 2.87 ± 0.85 µM; in series [14], 4.2 ± 0.56 µM; in series [15], 17.8 ± 27.5 µM.
